Our source for the Binding affinity (RU) values is patent US20250011363A1, “OPTIMIZED SHORTENED PEPTIDE THAT BINDS TO ACETYLCHOLINE RECEPTOR, AND USE THEREOF” (SKINMED CO., LTD., priority 2021, published 2025).

Experiment [1] deals with acetylcholine receptor. The experiment in a line: SPR, AchR immobilized on CM5 chip, peptide 10 uM.
The target in experiment [2] is acetylcholine receptor. The experiment is described as follows: SPR, receptor on CM5 chip, peptide 10 µM.

For KKVFLK [6mer-1-354], in the experiment with acetylcholine receptor [1], the Binding affinity (RU) came out at 153 RU. As for KKQFQK [6mer-1-374], the Binding affinity (RU) with acetylcholine receptor [1] came to 148 RU. KRQIRR [6mer-1-363]: the Binding affinity (RU) in the experiment with acetylcholine receptor [1] was determined as 121 RU. In the experiment with acetylcholine receptor [1], KRRQTR [6mer-1-357] registered a Binding affinity (RU) of 148 RU. In the experiment with acetylcholine receptor [2], KKGLCK [6mer-1-517] yielded a Binding affinity (RU) of 139 RU. In the case of RKQLYK [6mer-1-370], the Binding affinity (RU) in the experiment with acetylcholine receptor [1] was 142 RU. Still for that read-out and setting: in the case of KRGYSK [6mer-1-356] it was 153 RU; in that of KKWYRK [6mer-1-369], 144 RU. The same measure, in the same setting: in the case of KRQFLR [6mer-1-359] it was 131 RU. With KRLYLK [6mer-1-353], the Binding affinity (RU) in the experiment with acetylcholine receptor [1] was 126 RU. In the experiment with acetylcholine receptor [1], KKQVLK [6mer-1-338] returned a Binding affinity (RU) of 127 RU. KRRQSR [6mer-1-510]: the Binding affinity (RU) in the experiment with acetylcholine receptor [2] worked out at 122 RU.

Consider RKVYRR [6mer-1-511], for which the Binding affinity (RU) in the experiment with acetylcholine receptor [2] worked out at 136 RU. Turning to RKGFSK [6mer-1-367], the Binding affinity (RU) with acetylcholine receptor [1] was determined as 154 RU.

For the molecule RKQRLK [6mer-1-348], the Binding affinity (RU) in the experiment with acetylcholine receptor [1] was determined as 142 RU.

Molecule KKRLCR [6mer-1-534] yielded a Binding affinity (RU) with acetylcholine receptor [2] of 126 RU.

For the molecule RRRFTR [6mer-1-505], the Binding affinity (RU) with acetylcholine receptor [2] amounted to 148 RU. KRWVLK [6mer-1-518] came in with a Binding affinity (RU) in the experiment with acetylcholine receptor [2] of 153 RU. In the experiment with acetylcholine receptor [1], KKLLCR [6mer-1-345] gave a Binding affinity (RU) of 147 RU. On the same count and under the same terms, in the case of KKLYTK [6mer-1-343] it was 135 RU. In the experiment with acetylcholine receptor [2], RRGLSR [6mer-1-515] returned a Binding affinity (RU) of 139 RU.

In the experiment with acetylcholine receptor [2], RKQIRR [6mer-1-513] registered a Binding affinity (RU) of 154 RU.

Take RKWLRK [6mer-1-509]: the Binding affinity (RU) with acetylcholine receptor [2] was 128 RU. Consider RKRFCR [6mer-1-342], for which the Binding affinity (RU) with acetylcholine receptor [1] was determined as 131 RU. In turn, RKVISR [6mer-1-521] gave a Binding affinity (RU) with acetylcholine receptor [2] of 128 RU.

For the molecule RRSQSK [6mer-1-507], the Binding affinity (RU) with acetylcholine receptor [2] is 139 RU.

The molecule RKRQSK [6mer-1-364] came in with a Binding affinity (RU) with acetylcholine receptor [1] of 124 RU. In the experiment with acetylcholine receptor [1], RKSVQR [6mer-1-361] returned a Binding affinity (RU) of 127 RU.

As for RKWICK [6mer-1-512], the Binding affinity (RU) in the experiment with acetylcholine receptor [2] is 154 RU. In turn, KRVFLK [6mer-1-360] came in with a Binding affinity (RU) with acetylcholine receptor [1] of 148 RU. RKVFRK [6mer-1-352]: the Binding affinity (RU) in the experiment with acetylcholine receptor [1] was 142 RU. For the molecule KKRFSR [6mer-1-516], the Binding affinity (RU) with acetylcholine receptor [2] worked out at 139 RU. Regarding KRRQCK [6mer-1-519], the Binding affinity (RU) in the experiment with acetylcholine receptor [2] is 147 RU.

In the case of KKSQLR [6mer-1-532], the Binding affinity (RU) with acetylcholine receptor [2] amounted to 121 RU. KRVVYK [6mer-1-362] yielded a Binding affinity (RU) with acetylcholine receptor [1] of 133 RU.

On to RKSRRR [6mer-1-337], for which the Binding affinity (RU) with acetylcholine receptor [1] was 144 RU.

For the molecule RRQLRR [6mer-1-525], the Binding affinity (RU) in the experiment with acetylcholine receptor [2] is 139 RU. For the molecule RRGLRK [6mer-1-351], the Binding affinity (RU) in the experiment with acetylcholine receptor [1] worked out at 141 RU.

KRLVSK [6mer-1-530] had a Binding affinity (RU) with acetylcholine receptor [2] of 137 RU. As to KKGIYR [6mer-1-527], the Binding affinity (RU) with acetylcholine receptor [2] is 142 RU. In the experiment with acetylcholine receptor [2], RRSITR [6mer-1-504] had a Binding affinity (RU) of 122 RU. Turning to KRRYTR [6mer-1-358], the Binding affinity (RU) with acetylcholine receptor [1] was 124 RU. Molecule RKQQQR [6mer-1-341] yielded a Binding affinity (RU) in the experiment with acetylcholine receptor [1] of 128 RU. For the molecule RRSQRR [6mer-1-335], in the experiment with acetylcholine receptor [1], the Binding affinity (RU) is 148 RU. The molecule KRGYTR [6mer-1-526] gave a Binding affinity (RU) in the experiment with acetylcholine receptor [2] of 148 RU.

On to KRGVLK [6mer-1-373], for which, in the experiment with acetylcholine receptor [1], the Binding affinity (RU) came to 149 RU.

Take KKSQCR [6mer-1-344]: in the experiment with acetylcholine receptor [1], the Binding affinity (RU) came to 125 RU. RKVFYR [6mer-1-355] showed a Binding affinity (RU) with acetylcholine receptor [1] of 148 RU. RRQFSK [6mer-1-508]: the Binding affinity (RU) in the experiment with acetylcholine receptor [2] was 135 RU.

Turning to RRSLCK [6mer-1-529], the Binding affinity (RU) in the experiment with acetylcholine receptor [2] amounted to 139 RU. On to KRLLCK [6mer-1-340], for which the Binding affinity (RU) with acetylcholine receptor [1] is 142 RU. For the molecule KRSYTR [6mer-1-528], in the experiment with acetylcholine receptor [2], the Binding affinity (RU) came out at 139 RU. Take KRWFCR [6mer-1-366]: the Binding affinity (RU) with acetylcholine receptor [1] came to 133 RU. KKQQSK [6mer-1-347] showed a Binding affinity (RU) with acetylcholine receptor [1] of 126 RU. In the case of RKGQTK [6mer-1-531], the Binding affinity (RU) with acetylcholine receptor [2] turned out to be 135 RU. In the experiment with acetylcholine receptor [1], KRSLTR [6mer-1-371] registered a Binding affinity (RU) of 153 RU. As to KRVVTK [6mer-1-336], the Binding affinity (RU) with acetylcholine receptor [1] came to 154 RU. Molecule KRRRSK [6mer-1-523] had a Binding affinity (RU) with acetylcholine receptor [2] of 139 RU. Consider RRRFSK [6mer-1-368], for which the Binding affinity (RU) in the experiment with acetylcholine receptor [1] was 145 RU. Still for that read-out and setting: in the case of KKRIYR [6mer-1-346] it was 123 RU. As to RKRRLR [6mer-1-522], in the experiment with acetylcholine receptor [2], the Binding affinity (RU) is 126 RU. As for KRLYSK [6mer-1-349], the Binding affinity (RU) with acetylcholine receptor [1] was 123 RU.

In turn, RRRLSK [6mer-1-506] showed a Binding affinity (RU) in the experiment with acetylcholine receptor [2] of 151 RU. KKRICK [6mer-1-365]: the Binding affinity (RU) in the experiment with acetylcholine receptor [1] worked out at 142 RU.

For the molecule KKSIQK [6mer-1-339], in the experiment with acetylcholine receptor [1], the Binding affinity (RU) came to 147 RU.

Take KRQIYK [6mer-1-520]: the Binding affinity (RU) with acetylcholine receptor [2] turned out to be 127 RU.

In the experiment with acetylcholine receptor [2], KKGRSK [6mer-1-514] yielded a Binding affinity (RU) of 128 RU. RKLRSK [6mer-1-372] yielded a Binding affinity (RU) with acetylcholine receptor [1] of 145 RU.

In the experiment with acetylcholine receptor [2], KKGRQK [6mer-1-524] came in with a Binding affinity (RU) of 148 RU. With KKLQTK [6mer-1-350], the Binding affinity (RU) with acetylcholine receptor [1] came to 153 RU. RKWFSR [6mer-1-533]: in the experiment with acetylcholine receptor [2], the Binding affinity (RU) stood at 145 RU.
